According to article PMC2193908 (The Journal of Experimental Medicine, 2003):
Read-outs that look alike come from different tables or passages of the source.

Key:
Assay in all cases: radioligand binding
[1] = target: CXCR3-B (alternatively spliced variant of CXCR3) (human) (UniProt P49682)
[2] = target: CXCR3-B on the renal carcinoma ACHN cell line (human (endogenous in ACHN)) (UniProt P49682)
[3] = target: CXCR3-B (alternatively spliced variant of CXCR3) (human) (UniProt P49682); remark: listed apart in the source
[4] = target: CXCR3-A (classic CXC chemokine receptor 3) (human) (UniProt P49682)
[5] = target: T1, CXCR3-A (classic CXC chemokine receptor 3) (human, UniProt P49682-1 1-368)
T1 sequence (looked up): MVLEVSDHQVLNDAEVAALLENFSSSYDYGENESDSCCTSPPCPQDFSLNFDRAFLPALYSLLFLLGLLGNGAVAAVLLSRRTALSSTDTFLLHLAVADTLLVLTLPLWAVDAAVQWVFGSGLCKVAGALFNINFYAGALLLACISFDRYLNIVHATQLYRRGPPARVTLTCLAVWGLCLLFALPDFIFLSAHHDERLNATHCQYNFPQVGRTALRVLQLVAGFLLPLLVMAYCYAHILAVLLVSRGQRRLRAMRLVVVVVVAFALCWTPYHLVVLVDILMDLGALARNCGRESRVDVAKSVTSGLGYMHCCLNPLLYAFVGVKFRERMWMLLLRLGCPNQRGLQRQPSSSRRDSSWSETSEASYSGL

[6] = target: T2, CXCR3-B (alternatively spliced variant of CXCR3) (human, UniProt P49682-2 1-415)
T2 sequence (looked up): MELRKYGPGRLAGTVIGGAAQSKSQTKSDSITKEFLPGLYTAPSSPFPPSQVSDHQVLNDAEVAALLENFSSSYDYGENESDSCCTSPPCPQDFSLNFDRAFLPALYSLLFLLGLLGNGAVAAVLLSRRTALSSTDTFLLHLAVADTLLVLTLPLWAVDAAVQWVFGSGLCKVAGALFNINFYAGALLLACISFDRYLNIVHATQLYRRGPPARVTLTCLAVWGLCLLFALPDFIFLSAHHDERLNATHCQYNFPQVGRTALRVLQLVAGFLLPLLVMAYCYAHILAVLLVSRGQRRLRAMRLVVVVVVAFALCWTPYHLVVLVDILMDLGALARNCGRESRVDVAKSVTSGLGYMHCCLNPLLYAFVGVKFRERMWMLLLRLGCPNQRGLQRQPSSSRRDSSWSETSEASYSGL

[7] = target: T3, CXCR3-B on the renal carcinoma ACHN cell line (human (endogenous in ACHN), UniProt P49682-2 1-415)
T3 sequence (looked up): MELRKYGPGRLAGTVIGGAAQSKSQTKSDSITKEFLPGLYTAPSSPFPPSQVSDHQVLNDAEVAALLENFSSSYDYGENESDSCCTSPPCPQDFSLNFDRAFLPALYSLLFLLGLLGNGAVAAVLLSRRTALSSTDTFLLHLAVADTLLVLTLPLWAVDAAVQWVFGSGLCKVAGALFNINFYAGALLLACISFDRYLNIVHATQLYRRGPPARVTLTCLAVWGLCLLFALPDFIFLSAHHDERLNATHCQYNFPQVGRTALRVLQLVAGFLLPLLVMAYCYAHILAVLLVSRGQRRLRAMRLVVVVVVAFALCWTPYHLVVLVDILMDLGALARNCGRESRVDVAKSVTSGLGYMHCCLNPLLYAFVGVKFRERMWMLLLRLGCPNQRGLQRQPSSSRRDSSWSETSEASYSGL

Molecule: CXCL4/PF4 (platelet factor 4) (ligand)
- IC50 [1]: 1.85 nM
- IC50 [2]: 6.83 nM
- IC50 [3]: 7.46 nM
- IC50 [4]: 448 nM

B1: CXCL9/Mig (ligand, human, UniProt Q07325 23-125, looked up)
chain: TPVVRKGRCSCISTNQGTIHLQSLKDLKQFAPSPSCEKIEIIATLKNGVQTCLNPDSADVKELIKKWEKQVSQKKKQKNGKKHQKKKVLKVRKSQRSRQKKTT
- IC50 [5]: 33 ± 24 nM
- IC50 [6]: 133 ± 46.5 nM
- IC50 [7]: 88.5 ± 69.3 nM

B2: CXCL11/I-TAC (ligand, human, UniProt O14625 22-94, looked up)
chain: FPMFKRGRCLCIGPGVKAVKVADIEKASIMYPSNNCDKIEVIITLKENKGQRCLNPKSKQARLIIKKVERKNF
- IC50 [5]: 0.41 ± 0.14 nM
- IC50 [6]: 32 ± 10.2 nM
- IC50 [7]: 49.6 ± 11.3 nM
